Km and kcat data for 1 molecule are collected here from patent US12428663B2, “Identification of DNA polymerase theta inactivation mechanism” (The Johns Hopkins University, priority 2018, dated 2025).

The term Km denotes the concentration of substrate that gives half-maximal velocity. The term kcat denotes the number of substrate molecules converted per active site and unit of time at saturation.

This data set concerns primer-template complex 5. The data set is described as follows: Steady-state kinetic analysis of dA incorporation in 5 by Pol θ variants (polymerase activity). It counts as biochemical. The following applies: dA incorporation in 5, 25° C. How it is done: 1.4.3. Steady-state kinetic analysis of dA incorporation in 5 by Pol θ. Polymerase reactions were conducted with Pol θ (432 pM for wild type Pol θ and 5 nM for K2383A and K2383R), 5′-^32P-5 (50 nM), and a range of dATP concentrations (0.25 μM-100 μM for wild type and 62.5-5000 μM for mutants) at 25° C. in reaction buffer (10 mM Tris HCl pH 8, 25 mM KCl, 10 mM MgCl2, 1 mM BME). The concentration range for dATP and the reaction time were selected so that reactions proceeded no further than 25% (single-hit conditions). In a typical experiment, a 2×DNApolymerase solution was prepared by mixing 5′-^32P-5 (500 nM, 18 μL), 10×reaction buffer (18 μL), 10×Pol θ (4.32 nM for wild type or 50 nM for mutants, 18 μL) in storage buffer (20 mM Tris HCl pH 7, 300 mM NaCl, 10% glycerol, 5 mM BME), and H2O (36 μL). The 2×DNAenzyme solution (3 μL) was mixed with the appropriate 2×dNTP solution (3 μL) to initiate the reaction. Reactions were incubated for 20 s for wild type Pol θ, 1.5 min for K2383R, and 4 min for K2383A, after which, they were quenched with 95% formamide loading buffer containing 25 mM EDTA (6 μL). An aliquot (4 μL) was analyzed by 20% denaturing PAGE run at 55 W for approximately 3.5 h. The gel was analyzed by phosphorimaging, and the data were fit to the Michaelis-Menten equation. The kcat was determined by dividing Vmax by the active concentration of enzyme. […]

B1: wt28: wild type Pol θ catalytic core (residues 1792-2590) (protein, UniProt O75417 1792-2590, looked up, fragment)
chain: GFKDNSPISDTSFSLQLSQDGLQLTPASSSSESLSIIDVASDQNLFQTFIKEWRCKKRFSISLACEKIRSLTSSKTATIGSRFKQASSPQEIPIRDDGFPIKGCDDTLVVGLAVCWGGRDAYYFSLQKEQKHSEISASLVPPSLDPSLTLKDRMWYLQSCLRKESDKECSVVIYDFIQSYKILLLSCGISLEQSYEDPKVACWLLDPDSQEPTLHSIVTSFLPHELPLLEGMETSQGIQSLGLNAGSEHSGRYRASVESILIFNSMNQLNSLLQKENLQDVFRKVEMPSQYCLALLELNGIGFSTAECESQKHIMQAKLDAIETQAYQLAGHSFSFTSSDDIAEVLFLELKLPPNREMKNQGSKKTLGSTRRGIDNGRKLRLGRQFSTSKDVLNKLKALHPLPGLILEWRRITNAITKVVFPLQREKCLNPFLGMERIYPVSQSHTATGRITFTEPNIQNVPRDFEIKMPTLVGESPPSQAVGKGLLPMGRGKYKKGFSVNPRCQAQMEERAADRGMPFSISMRHAFVPFPGGSILAADYSQLELRILAHLSHDRRLIQVLNTGADVFRSIAAEWKMIEPESVGDDLRQQAKQICYGIIYGMGAKSLGEQMGIKENDAACYIDSFKSRYTGINQFMTETVKNCKRDGFVQTILGRRRYLPGIKDNNPYRKAHAERQAINTIVQGSAADIVKIATVNIQKQLETFHSTFKSHGHREGMLQSDQTGLSRKRKLQGMFCPIRGGFFILQLHDELLYEVAEEDVVQVAQIVKNEMESAVKLSVKLKVKVKIGASWGELKDFDV
modifications: catalytic core
Take B1: the Km was found to be 5 ± 1 µM and the turnover number (kcat) stood at 1.08 ± 0.2 s⁻¹.
